According to PMC9121386 (Journal of the American Chemical Society, 2022):

Legend:
Test in all cases: cross-linking
[1] = target: uL2 (60S ribosomal subunit protein) (human (endogenous in H1299), UniProt P62917 1-257)
[2] = target: uL4 (60S ribosomal subunit protein) (human (endogenous in H1299), UniProt P36578 1-427)
[3] = target: eS25 (40S ribosomal subunit protein) (human (endogenous in H1299), UniProt P62851 1-125)
[4] = target: uL16 (60S ribosomal subunit protein) (human (endogenous in H1299), UniProt P27635 1-214)

Measured: binding result

B1: fragile histidine triad (Fhit), wild type (enzyme)
chain: not shown
binds: [1] | [2] | [3] | [4]
